Reference: article PMC6796863, “Structural insight into human N6amt1–Trm112 complex functioning as a protein methyltransferase” (Cell Discovery, 2019)

Molecular target: T1, human N6amt1–Trm112 complex (human, UniProt Q9Y5N5 1-214; Q9UI30 1-125)
T1 construct: human N6amt1 (HemK2), full length, 214 amino acids; human Trm112, full length; SAM co-purifies with the complex; before the ITC titration the complex was incubated with SAH at a molar ratio of 1:2; also called the protein complex; source: E. coli BL21(DE3), co-expressed from pET-Duet, purified (Ni-NTA, gel filtration)
T1 sequence (looked up) 1: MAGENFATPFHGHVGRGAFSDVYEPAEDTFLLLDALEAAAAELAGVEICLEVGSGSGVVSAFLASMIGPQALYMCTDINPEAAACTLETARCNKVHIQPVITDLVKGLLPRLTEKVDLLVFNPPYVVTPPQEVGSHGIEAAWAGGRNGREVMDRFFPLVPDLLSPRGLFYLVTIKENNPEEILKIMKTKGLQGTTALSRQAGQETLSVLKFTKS
T1 sequence (looked up) 2: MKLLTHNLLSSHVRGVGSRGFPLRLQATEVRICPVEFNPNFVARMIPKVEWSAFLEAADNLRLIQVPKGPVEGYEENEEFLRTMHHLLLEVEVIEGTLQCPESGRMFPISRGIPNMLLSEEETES
Assay: ITC; 2 mM peptide injected into 0.1 mM N6amt1–Trm112 in the cell, 20 °C; complex incubated beforehand with SAH at a molar ratio of 1:2; single binding site model
Conditions: both partners purified

- Kd: 490 ± 150 µM
B1: Gln185-centered 15-residue peptide of human eRF1 (GGQ peptide) (peptide)
peptide: KKHGRGGQSALRFAR
notes: human eRF1, 15-residue peptide centered at Gln185; also called 15-residue GGQ peptide of eRF1
